# Experimental data reported in the DeepSol protein solubility set.
# Experiment: soluble on expression in E. coli; label from the status in PepcDB or PDB records
row,Sequence,soluble on expression in E. coli
1,MGSDKIHHHHHHMARLAVEPLEALARYQGEPALAAMRREFLPAVTDPVWRGLVEEFLTLDEPLTPYAHQCRRVWSFAASPGSGAHHAHIGGLALHVLQDLRNARALAEAHEARGLALDRGLLFAAIMLHDCLKRFVYDFDDDYALVKAEDPFIARHEDHHSWMLRELVARGVDRTLVLAVAAMHGLDDVSLASGVRPLAVVNHYLEIGLTGLEMQPEDVRAEHSIGFLSDSDWPWSGRAQQRAREVAAALSPRFEVTTGYMNLYLGSRFSFEHIDSLLRTKGHDGTVDHLSTLLEKQG,not soluble
2,MGSDKIHHHHHHMLRGGAPAVRMNAMKIISVNVGQPTALQVGQRTAVSGIRKHPVPGRVQVGEKGLEGDHVLNRRYHGGPDQAVYVYTREDYDHWTELLGRALEPGAFGENVLISGAESAEVRVGERFLLGAVEIEVTAPRLPCSTLGARMEDAGFVKRFKAARRPGFYARVLQSGDIGRGDPVTRTPAPDGAPTIGELFDADFAKSHDPAELRAWLTFPLGKRQRKEVEKWLAKAEG,not soluble
3,MAVDAVNSAAANPWANAGASSSDKNAASLNYDSFLKLLIAQMKNQDPTSPMDAGQQMSQLASFSQVEQTIKTNTHLKSMLQAEALTRASDLVGKTVMSADDKVTGVVKEVQVFSDGIVAVTEAGDKVLLQAGVVFSNGPITTKSDETTADSNNSAGS,not soluble
4,MSLVQSAVLGFPRIGPNRELKKATEGYWNGKITVDELFKVGKDLRTQNWKLQKEAGVDIIPSNDFSFYDQVLDLSLLFNVIPDRYTKYDLSPIDTLFAMGRGLQRKATETEKAVDVTALEMVKWFDSNYHYVRPTFSKTTQFKLNGQKPVDEFLEAKELGIHTRPVLLGPVSYLFLGKADKDSLDLEPLSLLEQLLPLYTEILSKLASAGATEVQIDEPVLVLDLPANAQAAIKKAYTYFGEQSNLPKITLATYFGTVVPNLDAIKGLPVAALHVDFVRAPEQFDEVVAAIGNKQTLSVGIVDGRNIWKNDFKKSSAIVNKAIEKLGADRVVVATSSSLLHTPVDLNNETKLDAEIKGFFSFATQKLDEVVVITKNVSGQDVAAALEANAKSVESRGKSKFIHDAAVKRRVASIDEKMSTRAAPFEQRLPEQQKVFNLPLFPTTTIGSFPQTKDIRINRNKFNKGTISAEEYEKFINSEIEKVIRFQEEIGLDVLVHGEPERNDMVQYFGEQINGYAFTVNGWVQSYGSRYVRPPIIVGDLSRPKAMSVKESVYAQSITSKPVKGMLTGPITCLRWSFPRDDVDQKTQAMQLALALRDEVNDLEAAGIKVIQVDEPALREGLPLREGTERSAYYTWAAEAFRVATSGVANKTQIHSHFCYSDLDPNHIKALDADVVSIEFSKKDDANYIAEFKNYPNHIGLGLFDIHSPRIPSKDEFIAKISTILKSYPAEKFWVNPDCGLKTRGWEETRLSLTHMVEAAKYFREQYKNEGHHHHHH,soluble
5,MKEESRAKTGRKPKSDPADYKYSFRLNAGENMRFEKLVTESEAKDKTRFIKKAIFGGTIKVVKIDKATMDYYIRLTEFHRQFQTIGNNYNQVVRAIRSNFGEKRAMSLLYKLEKMTLELMLLTKKVIALTEEYQKKWLQK,not soluble
6,MNNTIETILAHRSIRKFTAVPITDEQRQTIIQAGLAASSSSMLQVVSIVRVTDSEKRNELAQFAGNQAYVESAAEFLVFCIDYQRHATINPDVQADFTELTLIGAVDSGIMAQNCLLAAESMGLGGVYIGGLRNSAAQVDELLGLPENSAVLFGMCLGHPDQNPEVKPRLPAHVVVHENQYQELNLDDIQSYDQTMQAYYASRTSNQKLSTWSQEVTGKLAGESRPHILPYLNSKGLAKR,soluble
7,MGSDKIHHHHHHMTKNTVRTYIKQTWKTLTRSHQHLLESAQDTKLEHQPNTPWIIYISPQEDCNTVQSVLERSLSAKEMQQIEIRTLPSEVEAIQEHGLLYLPGAYVVPGGRFNEMYGWDSYFILLGLLQDEEWELAQSQVDQLLYQVQHYGTILNANRTYMLTRSQPPVLSMMVLALFQHTQDQAWLKSTLPLLEQFYYYWVVPPHLNSATGLSRYYALGEGAAPEVLFSELDETGRSHYERVKEYYKTFEIDDYDVSLFYDSERDELTDLFYKGDRSMRESGFDITNRFGPFSVDIVHYAPVCLNSLLYQMEQDLAQIHKILDNPELAEQWSDRATLRRERINQYLWDEEKGIYLDYHFYSGKRRHYEFATTFYPLWTGLSSPEQAQRIVENLSLFTAPGGIFTSTHVTGNQWDAPFGWAPLTLIAVQGLYRYGYRKEGDDIAHKFLTMAIQEFTKYGFFVEKYDVERCSAQVSDEICFGYSSNEIGFGWTNGVILELLANLDDS,not soluble
8,MAHHHHHHMTQSTIPLQSNIKISDRLEENSIDFCRFVGPFNRADEYAFTAPPWCQREGSENVPGSSLSTSVSAVFVLVSSPPNCGLVARFFCTKLLHYLLWCYKDAAFFLAGPSPRDFNVYRHEDDAAAWRKCMETCLAKSLEHVESARKRGTLTEPVVIVLADCESQAAYDTVHKMLGSMENLFVRHIWFGDSWRESNPVDCSYINVCLRQPAYRLTKCRGSSTCAKITSYLNSCLPTLHHIHLHEPLSGSPEETLRSGCPLFFTRHGQSEYNLEDRLGGDPDITPLGVDDALTLAEFFRDQVVRNPRLFATRDSIWDETEGFEVWCSQLKRTRHTAQPSADVLTNGNLKAFKMLNEIHAGVCEDMTANEVKEQYPSIQFFRHTDKAGFRYPNGESYHDLKRRLVPILYDLNATRKGILVVAHQAVLRAILSFFGGPPVEEAVHKPCAHRAVWCCTYNRLGEPRLSTITLRPRLQSSTEASTSVG,not soluble
9,MGSDKIHHHHHHVERRIFGLENEYGVTCTFRGQRRLSPDEVARYLFRRVVSWGRSSNVFLRNGARLYLDVGSHPEYATPECDNLLDLVAHDKAGERILEGLQIDAEQRLREEGIAGDIYLFKNNTDSAGNSYGCHENYLVARHGEFGKLADVLIPFLVTRQIICGAGKVLQTPRGALYCVSQRAEHIWEGVSSATTRSRPIINTRDEPHADAERFRRLHVIVGDSNMSETTTLLKLASTDLVLRMIEANVPMRDFTLENPIRAIREISHDMTGRRKVRLANGREASALEIQREYLERVQSFVDRTGTDATGKRVLELWQRTLEAVESGNLDLVAREIDWVAKYKLLERYRAKHGLSLSSPRVAQLDLTYHDIHRDRGLFYLLQQRGQMERVVSDLRIFEAKSVPPQTTRARLRGEFIKKAQEKRRDFTVDWVHLKLNDQAQRTVLCKDPFKAVDERVEKLIAGM,not soluble
10,MVRYYHIEMLACPECRNPRLILYVVREKRGAMPPQPERLKCRRWCYLFDRPASTVPLSTCVSSCVERDIEEGVLVCPACGRWYPIVEGIPVMMDDKYRDPERDREIASRLAGHVPEWVKLRAVAPVPLEPREAGEG,soluble
11,MMEYKIVENGLTYRIGNGASVPISNTGELIKGLRNYGPYEVPSLKYNQIALIHNNQFSSLINQLKSQISSKIDEVWHIHNINISEFIYDSPHFDSIKSQVDNAIDTGVDGIMLVLPEYNTPLYYKLKSYLINSIPSQFMRYDILSNRNLTFYVDNLLVQFVSKLGGKPWILNVDPEKGSDIIIGTGATRIDNVNLFCFAMVFKKDGTMLWNEISPIVTSSEYLTYLKSTIKKVVYGFKKSNPDWDVEKLTLHVSGKRPKMKDGETKILKETVEELKKQEMVSRDVKYAILHLNETHPFWVMGDPNNRFHPYEGTKVKLSSKRYLLTLLQPYLKRNGLEMVTPIKPLSVEIVSDNWTSEEYYHNVHEILDEIYYLSKMNWRGFRSRNLPVTVNYPKLVAGIIANVNRYGGYPINPEGNRSLQTNPWFL,soluble
12,MGHHHHHHSHMAALKEDRSYGLSCGRVSDGSKVSVFHVKLTDSALRAFESYRARQDSVSLRPSIRFQGSQGHISIPQPDCPAEARTFSFYLSNIGRDNPQGSFDCIQQYVSSHGEVHLDCLGSIQDKITVCATDDSYQKARQSMAQAEEETRSRSAIVIKAGGRYLGKKVQFRK,not soluble
13,MGHHKAMPYADVAAFIIELRKREAVAATALEFTILTAARSGETLGAKWHEIDWKDKIWTVPAERMKAAREHRVPLSSRTITILKKLAEFGSDENSFVFPGQKPGKPLSVMAMDMVLRRMEVDVTVHGFRSSFRDWCGEVSNFPRDVAEAALAHVVGDKTERAYRRGDALEKRRKLMAAWEKFCIAEIKKNPLEHHHHHH,not soluble
